Assay results as given in PMC8244513 (Current Research in Structural Biology, 2020).

Target: the molecule itself
Assay: native gel or EMSA

B1: ZnT8B-G3H6 (amino-terminal truncated, 35 kDa isoform of human zinc transporter ZnT8 / SLC30A8) (natural protein)
chain: MYHCHSGSKPTEKGANEYAYAKWKLCSASAICFIFMIAEVVGGHIAGSLAVVTDAAHLLIDLTSFLLSLFSLWLSSKPPSKRLTFGWHRAEILGALLSILCIWVVTGVLVYLACERLLYPDYQIQATVMIIVSSCAVAANIVLTVVLHQRCLGHNHKEVQANASVRAAFVHALGDLFQSISVLISALIIYFKPEYKIADPICTFIFSILVLASTITILKDFSILLMEGVPKSLNYSGVKELILAVDGVLSVHSLHIWSLTMNQVILSAHVATAASRDSQVVRREIAKALSKSFTMHSLTIQMESPVDQDPDCLFCEDPCD
stoichiometry N: 2
